Data as given in article PMC6141708.

Biological target: recombinant GST-RhoA (UniProt P61586)
Test: pull-down; recombinant GST-RhoA on beads; lysates of 293T cells transfected with WT or S9A Fam65b-GFP; 2 h at 4°C; pull-down buffer; anti-GFP immunoblot, band intensities in the pull-down normalised to the total lysate, four independent experiments

UniProt P61586, sequence (P61586 whole entry): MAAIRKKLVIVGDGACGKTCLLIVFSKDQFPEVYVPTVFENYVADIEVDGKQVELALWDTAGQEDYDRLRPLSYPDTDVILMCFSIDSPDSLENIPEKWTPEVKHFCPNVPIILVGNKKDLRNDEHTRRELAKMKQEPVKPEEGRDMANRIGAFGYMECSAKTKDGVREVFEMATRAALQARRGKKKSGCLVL

“Fam65b(S9A)-GFP (isoform 2) (natural protein)” gave a fold of Fam65b bound to RhoA against WT Fam65b-GFP of 1.8 fold.
